Drawing on publication PMC3415985, this text covers Kd for four substances.

pKd: −log10 of the molar value. Some results are limits rather than exact numbers.

What all share (experiment): AUC
For experiment [1], the target named is BirA D176A (Escherichia coli) (UniProt P06709).
Experiment [2] addresses BirA G142A (Escherichia coli) (UniProt P06709).
Experiment [3] deals with BirA I280A (Escherichia coli) (UniProt P06709).
Experiment [4] addresses BirA K172A (Escherichia coli) (UniProt P06709).

With “BirA D176A (from UniProt P06709 1-321) (enzyme)”, in experiment [1], the pKd (as a rule, the negative decadic logarithm of the Kd, by convention in mol/L) was < 2.22.

For the substance “BirA G142A (from UniProt P06709 1-321) (enzyme)”, the pKd in experiment [2] was < 1.77.

With “BirA I280A (from UniProt P06709 1-321) (enzyme)”, the negative logarithm of the Kd (pKd) in experiment [3] was < 2.40.

With “BirA K172A (from UniProt P06709 1-321) (enzyme)”, the pKd in experiment [4] is < 3.15.
